# Experimental data reported in publication PMC10198640.
# T1: recombinant soluble form of the extracellular domain of DC-SIGN, Q9NNX6
# T1 chain: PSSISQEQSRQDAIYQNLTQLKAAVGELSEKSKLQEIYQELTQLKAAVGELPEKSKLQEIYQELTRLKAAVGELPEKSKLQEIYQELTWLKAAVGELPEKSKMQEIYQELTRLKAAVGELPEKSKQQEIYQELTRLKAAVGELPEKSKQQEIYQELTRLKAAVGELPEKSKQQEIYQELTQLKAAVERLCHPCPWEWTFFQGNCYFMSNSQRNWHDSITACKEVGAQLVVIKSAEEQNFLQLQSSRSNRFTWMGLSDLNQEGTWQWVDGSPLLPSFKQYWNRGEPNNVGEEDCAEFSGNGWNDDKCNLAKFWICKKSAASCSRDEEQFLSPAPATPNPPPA
# B1: recombinant soluble form of the extracellular domain of DC-SIGN, Q9NNX6 64-404 (domain or fragment)
# chain: T1 chain
# Biological target: T1, recombinant soluble form of the …
# Experiment: native gel or EMSA; denaturing and nondenaturing polyacrylamide gel electrophoresis of the refolded, purified protein (fig. S2, A and B)
# Details: remark: other sources report otherwise
binder,measurement,value
B1,stoichiometry N,4
